We go through 4 molecules from publication PMC2517623, “The NDR/LATS Family Kinase Cbk1 Directly Controls Transcriptional Asymmetry” (PLoS Biology, 2008).

The experiment addresses His6-Crm1 (S. cerevisiae, UniProt P30822 1-1084). Kind of experiment: pull-down; GST fusions immobilised on glutathione-sepharose from E. coli lysate and washed five times in PBS/KMD; His6-Xpo1 (Crm1) 5 μM in 100 μl, 4 °C, 15 min; washed with TBST; SDS-PAGE, GelCode Blue; without Ran-GTP. The settings on record: both partners purified.

B1: GST-Ace2(122-150), wild-type (domain or fragment)
chain: SGTAIFGFLGHNKTLSISSLQQSILNMSK
notes: source: E. coli BL21(DE3)RIL, immobilised from lysate on glutathione-sepharose and washed; not shown: GST, N-terminal, kept
B1: the binding result is on record as “binds”.

B2: GST-Ace2(122-150) S137D (domain or fragment)
chain: SGTAIFGFLGHNKTLDISSLQQSILNMSK
notes: as for B1
For B2, the binding result is on record as “binds”.

B3: GST-Ace2(122-150) F127V (domain or fragment)
chain: SGTAIVGFLGHNKTLSISSLQQSILNMSK
notes: as for B1
For B3, the binding result is “binds”.

B4: GST-Ace2(122-150) S122D (domain or fragment)
chain: DGTAIFGFLGHNKTLSISSLQQSILNMSK
notes: as for B1
As to B4, the binding result is “binds”.
